A short description of this data set: self-splicing fitness, log relative to wild type (ln ratio); higher = more splicing; Tetrahymena group I intron in knt gene, E. coli kanamycin selection, DiMSum; sequences stand for … in CUCUCU…GGAGGGAAAAGUUAUCAGGCAUGCACCUGGUAGCUAGUCUUUAAACCAAUAGAUUGCAUCGGUUUAAAAGGCAAGACCGUCAAAUUGCGGGAAAGGGGUCAACAGCCGUUCAGUACCAAGUCUCAGGGGAAACUUUGAGAUGGCCUUGCAAAGGGUAUGGUAAUAAGCUGACGGACAUGGUCCUAACCACGCAGCCAAGUCCUAAGUCAACAGAUCUUCUGUUGAUAUGGAUGCAGUUCACAGACUAAAUGUCGGUCGGGGAAGAUGUAUUCUUCUCAUAAGAUAUAGUCGGACCUCUCCUUAAUGGGAGCUAGCGGAUGAAGUGAUGCAACACUGGAGCCGCUGGGAACUAAUUUGUAUGCGAAAGUAUAUUGAUUAGUUUUGGAGUACUCGUGGUCG
The method, boiled down: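 Library with all eight P1ex-region intron nucleotides randomised, intron inside the knt kanamycin-resistance gene on pET-22b(+), in E. coli BL21(DE3). Cells grew overnight at 37°C or 30°C on LB agar with or without 25 μg/mL kanamycin (plus 100 μg/mL carbenicillin, 50 μM IPTG, 0.2% rhamnose), in six replicate transformations. Pooled colonies were amplicon-sequenced on Illumina HiSeq 2500. DiMSum fitness is the error-weighted combination of wild-type-normalised replicate fold changes, kanamycin versus none.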

± gives the uncertainty stated by the source.

Consider ACAUAGCAAUAUUACGCUUA, for which the “self-splicing fitness (ln)” value runs as follows: (30 °C) -1.76 ± 0.19; (37 °C) -1.55 ± 0.17.

Turning to ACUUAGCAAUAUUACGCAAA, the “self-splicing fitness (ln)” value was -3.03 ± 0.41 (30 °C) and -1.24 ± 0.25 (37 °C).

As to AAGAAGCAAUAUUACGAGAG, the “self-splicing fitness (ln)” value is -4.49 ± 0.36 (30 °C) and -2.41 ± 0.2 (37 °C).

Consider AAGCAGCAAUAUUACGAUUG, for which the “self-splicing fitness (ln)” value is, setting by setting: (30 °C) -2.54 ± 0.13; (37 °C) -1.9 ± 0.14.

Regarding AAGCAGCAAUAUUACGGAGC, the “self-splicing fitness (ln)” value was -3.81 ± 0.37 (30 °C) and -3.05 ± 0.23 (37 °C).

CGGUAGCAAUAUUACGGCUC: the “self-splicing fitness (ln)” value is -1.15 ± 0.079 (30 °C) and -0.532 ± 0.11 (37 °C).

On to AUCAAGCAAUAUUACGGAAG, for which the “self-splicing fitness (ln)” value was -2.78 ± 0.11 (30 °C) and -2.01 ± 0.12 (37 °C).

With GUUUAGCAAUAUUACGGCUA, the “self-splicing fitness (ln)” value is -1.45 ± 0.33 (30 °C) and -1.68 ± 0.31 (37 °C).

In the case of UGUAAGCAAUAUUACGGCCU, the “self-splicing fitness (ln)” value is -1.08 ± 0.1 (30 °C) and -0.452 ± 0.12 (37 °C).

For the sequence UAUUAGCAAUAUUACGUGGU, the “self-splicing fitness (ln)” value reads like this: (30 °C) -2.57 ± 0.15; (37 °C) -2.69 ± 0.23.

Consider UGGGAGCAAUAUUACGUGCC, for which the “self-splicing fitness (ln)” value is -2.29 ± 0.34 (30 °C) and -2.09 ± 0.35 (37 °C).

On to CCUGAGCAAUAUUACGAGAG, for which the “self-splicing fitness (ln)” value was -3.7 ± 0.26 (30 °C) and -0.438 ± 0.1 (37 °C).

In the case of CAUCAGCAAUAUUACGUGGC, the “self-splicing fitness (ln)” value (30 °C) was -4.41 ± 0.27 and the “self-splicing fitness (ln)” value (37 °C) was -2.72 ± 0.19.

Consider ACAGAGCAAUAUUACGGACA, for which the “self-splicing fitness (ln)” value by setting is: (30 °C) -2.99 ± 0.3; (37 °C) -2.45 ± 0.25.

For CUGUAGCAAUAUUACGUCAA, the “self-splicing fitness (ln)” value reads like this: (30 °C) -2.56 ± 0.19; (37 °C) -1.85 ± 0.19.

For CAAUAGCAAUAUUACGGGGA, the “self-splicing fitness (ln)” value (30 °C) was -3.12 ± 0.39 and the “self-splicing fitness (ln)” value (37 °C) was -2.61 ± 0.24.

For UUAGAGCAAUAUUACGCGAU, the “self-splicing fitness (ln)” value was -3.09 ± 0.19 (30 °C) and -2.19 ± 0.24 (37 °C).

For UCGCAGCAAUAUUACGCGCG, the “self-splicing fitness (ln)” value runs as follows: (30 °C) -3.58 ± 0.29; (37 °C) -2.08 ± 0.27.

In the case of GAUUAGCAAUAUUACGUUGA, the “self-splicing fitness (ln)” value runs as follows: (30 °C) -2.8 ± 0.22; (37 °C) -2.25 ± 0.19.

For the sequence GUCCAGCAAUAUUACGACUG, the “self-splicing fitness (ln)” value by setting is: (30 °C) -4.63 ± 0.39; (37 °C) -1.86 ± 0.22.

Take AGUAAGCAAUAUUACGUACA: the “self-splicing fitness (ln)” value is, setting by setting: (30 °C) -0.932 ± 0.1; (37 °C) 0.0596 ± 0.13.

In the case of AUACAGCAAUAUUACGCCGG, the “self-splicing fitness (ln)” value was -2.34 ± 0.17 (30 °C) and -1.38 ± 0.21 (37 °C).

With CCUCAGCAAUAUUACGUGCC, the “self-splicing fitness (ln)” value runs as follows: (30 °C) -2.39 ± 0.17; (37 °C) -2.39 ± 0.31.

Regarding UAGAAGCAAUAUUACGCCUA, the “self-splicing fitness (ln)” value (30 °C) was -0.42 ± 0.13 and the “self-splicing fitness (ln)” value (37 °C) amounted to 0.0572 ± 0.14.

For CCCGAGCAAUAUUACGGGUG, the “self-splicing fitness (ln)” value (30 °C) was -3.42 ± 0.18 and the “self-splicing fitness (ln)” value (37 °C) is -1.7 ± 0.12.

With CCUGAGCAAUAUUACGGAUA, the “self-splicing fitness (ln)” value reads like this: (30 °C) -3.44 ± 0.32; (37 °C) -1.92 ± 0.23.

For ACAGAGCAAUAUUACGCGGG, the “self-splicing fitness (ln)” value is -4.91 ± 0.46 (30 °C) and -3.54 ± 0.37 (37 °C).

Take UGGUAGCAAUAUUACGGACU: the “self-splicing fitness (ln)” value (30 °C) is -0.67 ± 0.17 and the “self-splicing fitness (ln)” value (37 °C) amounted to 0.844 ± 0.2.

As for GUCCAGCAAUAUUACGUUCA, the “self-splicing fitness (ln)” value runs as follows: (30 °C) -0.971 ± 0.088; (37 °C) 0.797 ± 0.087.

Consider GGUAAGCAAUAUUACGAGUG, for which the “self-splicing fitness (ln)” value was -2 ± 0.16 (30 °C) and -3.17 ± 0.13 (37 °C).

Turning to CGACAGCAAUAUUACGAGGG, the “self-splicing fitness (ln)” value reads like this: (30 °C) -3.67 ± 0.13; (37 °C) -2.99 ± 0.15.

In the case of CCUUAGCAAUAUUACGGACG, the “self-splicing fitness (ln)” value runs as follows: (30 °C) -1 ± 0.13; (37 °C) -0.586 ± 0.17.

On to AUCGAGCAAUAUUACGUUGU, for which the “self-splicing fitness (ln)” value reads like this: (30 °C) -4 ± 0.26; (37 °C) -3.62 ± 0.31.
